Test results taken from patent CN110938146A (UNIV HUAZHONG AGRICULTURAL, dated 2020).

Biological target: T1, TIM-3重组蛋白 (human, UniProt Q8TDQ0 22-200, limits assumed)
T1 construct: also called 重组TIM-3蛋白; 固定化TIM-3
T1 sequence (looked up): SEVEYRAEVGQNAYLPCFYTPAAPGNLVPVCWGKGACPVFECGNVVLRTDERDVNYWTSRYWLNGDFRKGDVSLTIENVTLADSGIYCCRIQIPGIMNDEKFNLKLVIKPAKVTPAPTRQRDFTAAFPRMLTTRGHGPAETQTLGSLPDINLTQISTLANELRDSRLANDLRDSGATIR
Test: ELISA: TIM-3 coated at 5 ug/mL, biotinylated sdAb titrated 1:2 from 200 ug/mL, HRP-streptavidin, Prism fit

Kd: 278 nM
B1: TIM-3-CX153 (VHH)
VHH: QSMEESGGRLVKPDETLTLTCTVSGFSLSSYSMIWVRQAPGKGLEWIGIIGTTGNTYYASWAKGRFTISKTSTTVDLKMTSLTSEDTATYFCARYYADGVFDLWGQGTLVTVSS
notes: Expressed in E. coli BL21 from pET28 and purified on a His nickel column; also called TIM-3-CX153-HisFlag; TIM-3-CX153单抗
